According to patent US20200369773A1 (CELDARA MEDICAL, published 2020):

T1: FITC-recombinant mouse Fn14:human Fc (ENZO ALX-522-036F) (mouse, UniProt Q9CR75 28-80, FITC label (site not stated))
T1 construct: Bought reagent; also called FITC-recombinant Fn14; recombinant Fn14; not shown: human Fc
T1 sequence: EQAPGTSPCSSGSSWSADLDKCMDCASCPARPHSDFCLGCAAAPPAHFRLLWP

B1: scFvP3G5VLVH-mCD28H-mCD28TM-mCD28CS-mCD3zICS (anti-Fn14 CAR) (receptor)
chain: DIVLTQSPASLAVSLGQRATISCRANKSVSTSSYSYMHWYQQKPGQPPKLLIKYASNLESGVPARFSGSGSGTDFILNIHPVEEEDAATYYCQHSRELPFTFGSGTKLEIKGGGGSGGGGSGGGGSQVQLQQSGPEVVRPGVSVKISCKGSGYTFTDYGIHWVKQSHAKSLEWIGVISTYNGYTNYNQKFKGKATMTVDKSSSTAYMELARLTSEDSAIYYCARAYYGNLYYAMDYWGQGTSVTVSSIKEKHLCHTQSSPKLFWALVVVAGVLFCYGLLVTVALCVIWTNSRRNRLLQSDYMNMTPRRPGLTRKPYQPYAPARDFAAYRPRAKFSRSAETAANLQDPNQLYNELNLGRREEYDVLEKKRARDPEMGGKQQRRRNPQEGVYNALQKDKMAEAYSEIGTKGERRRGKGHDGLYQGLSTATKDTYDALHMQTLAPR
notes: Chimeric antigen receptor on transduced mouse T cells
B2: mouse truncated CD19 (mtrCD19), mock construct without CAR (other)
chain: RPQKSLLVEVEEGGNVVLPCLPDSSPVSSEKLAWYRGNQSTPFLELSPGSPGLGLHVGSLGILLVIVNVSDHMGGFYLCQKRPPFKDIWQPAWTVNVEDSGEMFRWNASDVRDLDCDLRNRSSGSHRSTSGSQLYVWAKDHPKVWGTKPVCAPRGSSLNQSLINQDLTVAPGSTLWLSCGVPPVPVAKGSISWTHVHPRRPNVSLLSLSLGGEHPVREMWVWGSLLLLPQATALDEGTYYCLRGNLTIERHVKVIARSAVWLWLLRTGGWIVPVVTLVYVIFCMVSLVAFLYCQRAFILRRKRKRMT
notes: Negative control: mouse T cells transduced with a vector that encodes only mtrCD19 and no CAR; also called mt19; mock transduced cells
B3: scFvP3G5VHVL-mCD28H-mCD28TM-mCD28CS-mCD3zICS (anti-Fn14 CAR) (receptor)
chain: QVQLQQSGPEVVRPGVSVKISCKGSGYTFTDYGIHWVKQSHAKSLEWIGVISTYNGYTNYNQKFKGKATMTVDKSSSTAYMELARLTSEDSAIYYCARAYYGNLYYAMDYWGQGTSVTVSSGGGGSGGGGSGGGGSDIVLTQSPASLAVSLGQRATISCRANKSVSTSSYSYMHWYQQKPGQPPKLLIKYASNLESGVPARFSGSGSGTDFILNIHPVEEEDAATYYCQHSRELPFTFGSGTKLEIKIKEKHLCHTQSSPKLFWALVVVAGVLFCYGLLVTVALCVIWTNSRRNRLLQSDYMNMTPRRPGLTRKPYQPYAPARDFAAYRPRAKFSRSAETAANLQDPNQLYNELNLGRREEYDVLEKKRARDPEMGGKQQRRRNPQEGVYNALQKDKMAEAYSEIGTKGERRRGKGHDGLYQGLSTATKDTYDALHMQTLAPR
notes: as for B1

target: T1, FITC-recombinant mouse Fn14:human Fc …; experiment: flow cytometry; transduced mouse T cells stained with FITC-recombinant mouse Fn14:human Fc
Experimental: Cell samples that were subjected to transduction with pFB vector containing the anti-Fn14 CAR and T2A+mtrCD19 (4A8H_mt19, 4A8L_mt19, 3G5H_mt19, 3G5L_mt19) construct or just the T2A+mtrCD19 (mt19) construct (from Day 8 of Example 1) were harvested, and 0.25×10⁶ cells in 100 μL of FACS buffer were placed in a 96 well round bottom plate. The plate was spun at 500 ref for 1 min at room temperature, and the supernatant was removed. Cells in each well were resuspended in 25 μL of Blocking buffer and incubated on ice for 10 min.
Cells were then added with 150 μL of FACS buffer and spun at 500 ref for 2 min, and the supernatant was removed. This washing step was repeated once more with 200 μL of FACS buffer.
For the same day FACS analysis, cells in each well were resuspended in 250 μL of FACS buffer and analyzed on flow cytometer. For the next day analysis, cells were diluted in 250 μL of Fixation buffer until analyzed the following day. Cells were stored on ice or 4° C., protected from light, until run on FACS machine.

| % anti-Fn14 CAR^+ of CD3^+ cells (staining with FITC-recombinant Fn14) [%] | Binder |
| --- | --- |
| 11.4 | B1 |
| 1.6 | B2 |
| 10.8 | B3 |
